Test results: patent US20220267415A1 (University of Texas, published 2022)
Values joined by “and” are separate entries in the source; they are usually repeats but may differ in a detail not shown here. Equal values may be shown once. Read-outs that look alike come from different tables or passages of the source.

Assays:
[1] = biological target: T1, SARS-CoV-2 spike protein, wild type, on live virus (SARS-CoV-2-mNG / USA-WA1/2020) (SARS-CoV-2, UniProt P0DTC2 13-1273); assay: cell-based or functional assay
[2] = biological target: T1, SARS-CoV-2 spike protein, wild type, on …; assay: cell-based or functional assay; remark: listed apart in the source
[3] = biological target: T1, SARS-CoV-2 spike protein, wild type, on …; assay: cell-based or functional assay; remark: listed apart in the source
[4] = biological target: T2, recombinant Spike protein (Sino Biologicals Cat #40589-V08B1) (SARS-CoV-2, UniProt P0DTC2 13-1213); assay: BLI (Octet), His-tagged S on Ni-NTA sensor, avidity
[5] = biological target: T2, recombinant Spike protein (Sino …); assay: BLI (Octet), avidity to spike
[6] = biological target: T2, recombinant Spike protein (Sino …); assay: ELISA on coated recombinant spike
[7] = biological target: T3, recombinant SARS-CoV-2 Receptor Binding Domain (RBD) with a his tag (ATUM, Cat. 65639.1.a) (SARS-CoV-2, UniProt P0DTC2 319-541)
[8] = biological target: T3, recombinant SARS-CoV-2 Receptor Binding …; assay: ELISA on coated RBD-his
[9] = biological target: T1, SARS-CoV-2 spike protein, wild type, on …; assay: cell-based or functional assay; remark: listed apart in the source
[10] = biological target: T1, SARS-CoV-2 spike protein, wild type, on …; assay: cell-based or functional assay; remark: listed apart in the source
[11] = biological target: T1, SARS-CoV-2 spike protein, wild type, on …; assay: cell-based or functional assay; remark: listed apart in the source
[12] = biological target: T3, recombinant SARS-CoV-2 Receptor Binding …; remark: listed apart in the source

B1: anti-SARS-CoV2-06 IgM (lambda-VL-kappa-CL hybrid light chain) (antibody)
VH: QVELQESGPGLVKPSGTLSLTCAVSGGSISSNNWWTWVRQPPGKGLEWIGEIHHSGGTNYNPSLKSRVTMSVDKSKNQFSLNLYSVTAADTAVYYCTRDRAGGTYSGFDFWGQGTLVTVSS
VL: QAVVTQPASVSGSPGQSITISCTGTSSDVGGYNYVSWYQQHPGKAPKLMIYDVSNRPSGVSNRFSGSKSGNTASLTISGLQAEDEADYYCSSYTSSSTVVFGGGTKVTVL
chain: not shown
In the case of B1, the “Neutralization EC50” value [1] is reported as 0.059 µg/mL, the “EC50 (neutralization of live SARS-CoV-2-mNG)” value [2] is reported as 0.06 µg/ml and 0.067 nM and the “Fold change of neutralization EC50 in nM (IgM-06 against IgG-06)” value [2] is reported as 14.9 fold. For the same binder, the “Fold change of neutralization EC50 in µg/ml (IgM-06 against IgG-06)” value [2] was 2.5 fold.

B2: anti-SARS-CoV2-14 IgG (lambda-VL-kappa-CL hybrid light chain) (antibody, V domains shown)
VH: EVQLQQSGPGLVKPSQTLSLTCAISGDSVSSNSAAWNWIRQSPSRGLEWLGRTYYRSKWYNDYAVSVKSRITINPDTSKNQFSLQLNSVTPEDTAVYYCAREEQQLVHDYYYYGMDVWGQGTMVTVSS
VL: QAVVTQPASVSGSPGQSITISCTGTSSDIGAYNYISWYQQHPGKAPKLIIYEVSNRPSGISYRFSGSKSGNTASLTISGLQAEDEANYYCSSYAGSISFGGGTKVTVL
With B2 the “EC50 (neutralization of live SARS-CoV-2-mNG)” value [3] was 2.6 nM and 0.39 µg/ml and the “Neutralization EC50” value [1] was 0.39 µg/mL.

B3: anti-SARS-CoV2-14 IgM (lambda-VL-kappa-CL hybrid light chain) (antibody)
heavy: EVQLQQSGPGLVKPSQTLSLTCAISGDSVSSNSAAWNWIRQSPSRGLEWLGRTYYRSKWYNDYAVSVKSRITINPDTSKNQFSLQLNSVTPEDTAVYYCAREEQQLVHDYYYYGMDVWGQGTMVTVSSGSASAPTLFPLVSCENSPSDTSSVAVGCLAQDFLPDSITFSWKYKNNSDISSTRGFPSVLRGGKYAATSQVLLPSKDVMQGTDEHVVCKVQHPNGNKEKNVPLPVIAELPPKVSVFVPPRDGFFGNPRKSKLICQATGFSPRQIQVSWLREGKQVGSGVTTDQVQAEAKESGPTTYKVTSTLTIKESDWLSQSMFTCRVDHRGLTFQQNASSMCVPDQDTAIRVFAIPPSFASIFLTKSTKLTCLVTDLTTYDSVTISWTRQNGEAVKTHTNISESHPNATFSAVGEASICEDDWNSGERFTCTVTHTDLPSPLKQTISRPKGVALHRPDVYLLPPAREQLNLRESATITCLVTGFSPADVFVQWMQRGQPLSPEKYVTSAPMPEPQAPGRYFAHSILTVSEEEWNTGETYTCVVAHEALPNRVTERTVDKSTGKPTLYNVSLVMSDTAGTCY
VL: B2 VL
chain: not shown
B3 showed a Kd [4] of 102 pM, a koff [4] of 0.00034 s⁻¹ and a kon [4] of 3.35e+06 M⁻¹ s⁻¹. The “fold change of KD (IgM-14 against IgG-14)” value [5] was 13.6 fold, the “fold change of Kdis (IgM-14 against IgG-14)” value [5] was 0.26 fold and the “fold change of Kon (IgM-14 against IgG-14)” value [5] was 3.59 fold. The “EC50 (neutralization of live SARS-CoV-2-mNG)” value [3] was 0.01 µg/ml and 0.011 nM, the “Fold change of neutralization EC50 in nM (IgM-14 against IgG-14)” value [3] was 236 fold and the “Fold change of neutralization EC50 in µg/ml (IgM-14 against IgG-14)” value [3] was 39 fold. The EC50 [6] was 46 pM, the “fold change of ELISA EC50 (IgM-14 against IgG-14)” value [6] was 135 fold and the “EC50 (read off the curve)” value [7] was about 700 pM. For the same binder, the EC50 [8] was 700 pM and the “Neutralization EC50” value [1] was 0.015 µg/mL.

B4: anti-SARS-CoV2-06 IgG (lambda-VL-kappa-CL hybrid light chain) (antibody, V domains shown)
VH: B1 VH
VL: B1 VL
For B4, the “Neutralization EC50” value [1] was 0.22 µg/mL and the “EC50 (neutralization of live SARS-CoV-2-mNG)” value [2] was 0.15 µg/ml and 1 nM.

B5: anti-SARS-CoV2-14 IgG (full lambda light chain) (antibody, V domains shown)
VH: B2 VH
VL: B2 VL
For B5, the “Neutralization EC50 (PRNT)” value [9] was 0.32 µg/mL, the “Neutralization EC50 (PRNT)” value [10] was 0.51 µg/mL and the “Neutralization EC50” value [11] was 0.6 µg/mL.

B6: anti-SARS-CoV2-14 IgM (full lambda light chain) (antibody)
heavy: B3 heavy
light: QAVVTQPASVSGSPGQSITISCTGTSSDIGAYNYISWYQQHPGKAPKLIIYEVSNRPSGISYRFSGSKSGNTASLTISGLQAEDEANYYCSSYAGSISFGGGTKVTVLGQPKAAPSVTLFPPSSEELQANKATLVCLISDFYPGAVTVAWKADSSPVKAGVETTTPSKQSNNKYAASSYLSLTPEQWKSHRSYSCQVTHEGSTVEKTVAPTECS
chain: not shown
B6 was tested, and the “Fold-Increase in potency of IgM over IgG” value [9] was 61 fold, the “Neutralization EC50 (PRNT)” value [9] was 0.0052 µg/mL and the “Fold-Increase in potency of IgM over IgG” value [10] was 46 fold. The “Neutralization EC50 (PRNT)” value [10] was 0.011 µg/mL and the “Neutralization EC50” value [11] was 0.0046 µg/mL.

B7: anti-SARS-CoV2-16 IgM (antibody)
VH: QVQLHQWGAGLLKPSETLSRTCAVYGGSFSGYYWTWIRQAPGKGLEWIGEINHGGSTRYNPSLESRVSISVDTSKKQFSLELRSVTAADTAIYYCARGYDTNWYGDGYNWFDPWDRGTLVTVSS
VL: QAVVTQPPSVSGTPGQRVTISCSGSSSSIGSNTVHWYQHLPGTAPKLLMYNNNERPSGVPARFSGSKSGTSASLVITGLQADDEAEYYCQSYDTGLSGHVFGSGTELTVL
chain: not shown
With B7 the EC50 [8] was 300 pM and the “EC50 (read off the curve)” value [12] was about 300 pM.

B8: anti-SARS-CoV2-16 IgA1 (antibody)
VH: B7 VH
VL: B7 VL
chain: not shown
B8 was tested, and the EC50 [8] was 600 pM and the “EC50 (read off the curve)” value [12] was about 500 pM.

B9: anti-SARS-CoV2-16 IgA2m2 (antibody)
VH: B7 VH
VL: B7 VL
chain: not shown
B9 was tested, and the EC50 [8] was 600 pM and the “EC50 (read off the curve)” value [12] was about 600 pM.

B10: anti-SARS-CoV2-14 IgA1 (antibody)
VH: B2 VH
VL: B2 VL
chain: not shown
In the case of B10, the EC50 [8] is reported as 1900 pM.

B11: anti-SARS-CoV2-26 IgA1 (antibody)
VH: not shown
VL: QSALTQPPSASGTPGQRVTISCSGSSSNIGSNSVNWYQQVPGTAPKLLIYANDHRPSGVPDRFSGSKSGTSASLAISGLQSEDEADYYCAAWDNSLKGVVFGGGTKVTVL
chain: not shown
Binder B11 has an EC50 [8] of 1800 pM.

B12: anti-SARS-CoV2-09 IgA2m2 (antibody)
VH: B7 VH
VL: QSALTQDPSVSVALGQTVRITCQGDSLRGSFASWYRQKPGQAPVLVIFGINNRPSGVPDRFSGSSSGNTASLTITGAQAEDEADYYCNSRESNSNRILFGGGTKVTVL
chain: not shown
In the case of B12, the EC50 [8] is reported as 1400 pM.

B13: anti-SARS-CoV2-14 IgA2m2 (antibody)
VH: B2 VH
VL: B2 VL
chain: not shown
For B13, the EC50 [8] was 14000 pM.

B14: anti-SARS-CoV2-26 IgA2m2 (antibody)
VH: not shown
VL: B11 VL
chain: not shown
B14 was tested, and the EC50 [8] was 38000 pM.

B15: anti-SARS-CoV2-09 IgA1 (antibody)
VH: B7 VH
VL: B12 VL
chain: not shown
In the case of B15, the EC50 [8] is reported as 1000 pM.
